Measurements from US6132731, “Murine leukemia virus vectors” (Oxford Biomedica (UK) Limited, dated 2000).

Tests used:
VLA4 receptor (human) = VLA4 receptor (human) (UniProt P13612)
VLA5 receptor = VLA5 receptor (human, UniProt P08648); assay: cell-based or functional assay
VLA3 receptor = VLA3 receptor (human, UniProt P26006); assay: cell-based or functional assay
VLA4 receptor = VLA4 receptor (human, UniProt P13612); assay: cell-based or functional assay

amphotropic MLV envelope (isolate 4070a) (plasmid pHIT456)
viral titer of pHIT456 (amphotropic) virus on U937 cells in the presence of anti-VLA4 antibody (VLA4 receptor (human)): 40000 viral titer

B1: hybrid ecotropic MLV envelope with FLA16 at site II (plasmid pHIT508) (other)
chain: ASPGSSPHQVYNITWEVTNGDRETVWATSGNHPLWTWWPDLTPDLCMLAHHGPSYWGLEYQSPFSSPPGPPCCSGGSSPGCSRDCEEPLTSLTPRCNTAWNRLKLDQTTHKSNEGFYVCQGATFALRGDNPQGCGGPDSFYCAYWGCETTGRAYWKPSSSWDFITVNNNLTSDQAVQVCKDNKWCNPLVIRFTDAGRRVTSWTTGHYWGLRLYVSGQDPGLTFGIRLRYQNLGPRVPIGPNPVLADQQPLSKPKPVKSPSVTKPPSGTPLSPTQLPPAGTENRLLNLVDGAYQALNLTSPDKTQECWLCLVAGPPYYEGVAVLGTYSNHTSAPANCSVASQHKLTLSEVTGQGLCIGAVPKTHQALCNTTQTSSRGSYYLVAPTGTMWACSTGLTPCISTTILNLTTDYCVLVELWPRVTYHSPSYVYGLFERSNRHKREPVSLTLALLLGGLTMGGIAAGIGTGTTALMATQQFQQLQAAVQDDLREVEKSISNLEKSLTSLSEVVLQNRRGLDLLFLKEGGLCAALKEECCFYADHTGLVRDSMAKLRERLNQRQKLFESTQGWFEGLFNRSPWFTTLISTIMGPLIVLLMILLFGPCILNRLVQFVKDRISVVQALVLTQQYHQLKPIEYEP
viral titer on U937 cells (lacZ delivery, X-gal staining) (VLA5 receptor): 150 viral titer
viral titer on U937 cells (lacZ delivery, X-gal staining) (VLA3 receptor): 150 viral titer

B2: hybrid ecotropic MLV envelope with the VCAM-1 sequence at site II (plasmid pHIT510) (other)
chain: ASPGSSPHQVYNITWEVTNGDRETVWATSGNHPLWTWWPDLTPDLCMLAHHGPSYWGLEYQSPFSSPPGPPCCSGGSSPGCSRDCEEPLTSLTPRCNTAWNRLKLDQTTHKSNEGFYVCTIDSPLNCGGPDSFYCAYWGCETTGRAYWKPSSSWDFITVNNNLTSDQAVQVCKDNKWCNPLVIRFTDAGRRVTSWTTGHYWGLRLYVSGQDPGLTFGIRLRYQNLGPRVPIGPNPVLADQQPLSKPKPVKSPSVTKPPSGTPLSPTQLPPAGTENRLLNLVDGAYQALNLTSPDKTQECWLCLVAGPPYYEGVAVLGTYSNHTSAPANCSVASQHKLTLSEVTGQGLCIGAVPKTHQALCNTTQTSSRGSYYLVAPTGTMWACSTGLTPCISTTILNLTTDYCVLVELWPRVTYHSPSYVYGLFERSNRHKREPVSLTLALLLGGLTMGGIAAGIGTGTTALMATQQFQQLQAAVQDDLREVEKSISNLEKSLTSLSEVVLQNRRGLDLLFLKEGGLCAALKEECCFYADHTGLVRDSMAKLRERLNQRQKLFESTQGWFEGLFNRSPWFTTLISTIMGPLIVLLMILLFGPCILNRLVQFVKDRISVVQALVLTQQYHQLKPIEYEP
viral titer on U937 cells (lacZ delivery, X-gal staining) (VLA4 receptor): 150 viral titer
